Measured values from patent publication CN113480658A (SHENZHEN INNOVA NANOBODI CO LTD, dated 2021).
Substitutions are numbered along the chain they refer to. Blank lines part the entries; values can stand above or below the binder they belong to.

How the values were obtained:
人附睾蛋白(HE4) [1] = biological target: T1, 人附睾蛋白(HE4) (human, UniProt Q14508 31-124); assay: additive ELISA on HE4, 1G8 alone
T1 construct: also called HE4抗原; 抗原
T1 sequence (looked up): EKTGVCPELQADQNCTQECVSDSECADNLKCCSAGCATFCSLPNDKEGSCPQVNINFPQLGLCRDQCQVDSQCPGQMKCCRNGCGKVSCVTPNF

人附睾蛋白(HE4) [2] = biological target: T1, 人附睾蛋白(HE4); assay: SPR, Biacore T100, 1:1 binding fit
人附睾蛋白(HE4) [3] = biological target: T1, 人附睾蛋白(HE4); assay: additive ELISA on HE4, 1D9 alone

- ELISA reading (2nd抗体) (人附睾蛋白(HE4) [1]): 0.481
B1: 纳米抗体1G8 (VHH)
VHH: QVQLQESGGGLAQTGGSLRLSCVASGRTLDRYAIGWFRQAPGKEREFVAAISMSGTMTDYTDSVKGRFTISRDNAKNTVYLQMNSLKPDDTAVYCCAAGGRRGWGRALFAYDYWGQGTQVTVSS

- Kd (人附睾蛋白(HE4) [2]): 6.9 pM
B2: 抗HE4二价纳米抗体1D9-LHC (VHH)
VHH: B1 VHH with A12V, T14P, V23A, R27P, T28R, L29F, D30S, R31S, A33G, I34M

- ELISA reading (1st抗体) (人附睾蛋白(HE4) [3]): 0.286
- Kd (人附睾蛋白(HE4) [2]): 11.9 pM
B3: 纳米抗体1D9 (抗HE4单价纳米抗体) (VHH)
VHH: B1 VHH with A12V, T14P, V23A, R27P, T28R, L29F, D30S, R31S, A33G, I34M
notes: CDR1 26-33, CDR2 51-58, CDR3 97-113); Expressed in E. coli from pMES4 and purified
